Data taken from patent EP0860700A2.

Target: HSV-1 major capsid protein VP5 (gene product of UL19) (herpes simplex virus type 1 (HSV-1))
Assay: co-immunoprecipitation with VP5 antisera of in vitro translated radiolabeled protein mixed with BAC-VP5 Sf9 extract, SDS-PAGE

Substance: HSV-1 UL15 gene product (75 kD protein)
- fold amount co-immunoprecipitated with VP5 against the negative control proteins (HPV-6b E1, HPV-16 E1, HPV-16 E2): 10 fold
